Broadly, the koff is a measure of how fast the partners let go of each other. Broadly, the kon is a measure of how fast the partners come together. One may read the Kd as the equilibrium constant for the complex coming apart. For orientation: EC50 means the concentration that produces a half-maximal response.

Assay [1] addresses recombinant human TACE ectodomain (Arg215-Arg651) (human) (UniProt P78536). Kind of assay: cell-based or functional assay.
Assay [2] deals with recombinant human TACE catalytic domain (Arg215-Val477-GlySer-His6) (human) (UniProt P78536). Kind of assay: cell-based or functional assay.
For assay [3], the target named is T1, recombinant human TACE ectodomain (Arg215-Arg651) (human, UniProt P78536 215-651). Kind of assay: cell-based or functional assay.
Assay [4] addresses T2, recombinant human TACE catalytic domain (Arg215-Val477-GlySer-His6) (human, UniProt P78536 215-477). Kind of assay: cell-based or functional assay.
Assay [5] addresses T1, recombinant human TACE ectodomain …. Kind of assay: SPR (Biacore T100, 37 C): D1(A12) FAb amine-coupled to a CM5 chip, TACE ectodomain injected (traces labelled 0.25 to 6 nM) [panel C, lower right]. The method, then:
(§1) Results represent the mean values of blank-subtracted technical triplicates per concentration variable. All experiments were performed on a Biacore T100 (GE Healthcare) at 37° C. with a flow-rate of […]. Binding constants were calculated using Biacore T100 Evaluation Software (1:1 binding model; Rmax <200 RU; tc >1×10⁸; Chi²<0.5 RU².
A general note: In SPR one partner is held on a chip, and binding of the other changes the refractive index at the surface.

For assay [6], the target named is T2, recombinant human TACE catalytic domain …. Kind of assay: SPR (Biacore T100, 37 C): D1(A12) FAb amine-coupled to a CM5 chip, TACE catalytic domain injected (traces labelled 1 to 15 nM) [panel C, lower left]. The method, then: as §1
Assay [7] addresses T1, recombinant human TACE ectodomain …. Kind of assay: cell-based or functional assay. This is another data set of the same source.
Assay [8] has as its target T2, recombinant human TACE catalytic domain …. Kind of assay: cell-based or functional assay. The source holds these as a separate data set.
For assay [9], the target named is T1, recombinant human TACE ectodomain …. Kind of assay: competition ELISA: 100 nM immobilised TACE ectodomain pre-incubated with titrated D1(A12) FAb, then probed for N-TIMP-3 binding [panel A]. On the technique in general: ELISA stands for enzyme-linked immunosorbent assay.
The target is the same in assay [10]. Kind of assay: SPR; ratio of the KD for the isolated catalytic domain to the KD for the ectodomain. On the procedure: as §1
The target is the same in assay [11]. Kind of assay: SPR (Biacore T100, 37 C); FAb amine-coupled to CM5 chip, titrated TACE injected; 1:1 model. On the procedure: as §1
The target in assay [12] is T2, recombinant human TACE catalytic domain …. Described as above. On the procedure: as §1
The target of assay [13] is T1, recombinant human TACE ectodomain …. Kind of assay: inverted titration ELISA.
The target of assay [14] is T2, recombinant human TACE catalytic domain …. Kind of assay: inverted titration ELISA.
Assay [15] has as its target T1, recombinant human TACE ectodomain …. Kind of assay: inverted titration ELISA; ratio of the EC50 for the catalytic domain to the EC50 for the ectodomain.
For assay [16], the target named is cell surface TACE (human, UniProt P78536 215-824). Kind of assay: cell-based or functional assay.
Assay [17] deals with T2, recombinant human TACE catalytic domain …. Kind of assay: SPR (Biacore T100, 37 C): N-TIMP-3 amine-coupled to a CM5 chip, TACE catalytic domain injected (traces labelled 0.5 to 5 nM) [panel C, upper left]. On the procedure: as §1
Assay [18] deals with T1, recombinant human TACE ectodomain …. Kind of assay: competition ELISA: immobilised TACE ectodomain pre-incubated with titrated N-TIMP-3, then probed with D1(A12) FAb [panel B].
Assay [19] has the same target. Kind of assay: SPR (Biacore T100, 37 C); N-TIMP-3 amine-coupled to CM5 chip, titrated TACE injected; 1:1 model. The method, then: as §1
In assay [20] the target is T2, recombinant human TACE catalytic domain …. Described as above. On the procedure: as §1
Assay [21] has as its target T1, recombinant human TACE ectodomain …. Kind of assay: SPR (Biacore T100, 37 C): N-TIMP-3 amine-coupled to a CM5 chip, TACE ectodomain injected (traces labelled 5 to 50 nM) [panel C, upper right]. The method, then: as §1

Chain of cell surface TACE (P78536 215-824): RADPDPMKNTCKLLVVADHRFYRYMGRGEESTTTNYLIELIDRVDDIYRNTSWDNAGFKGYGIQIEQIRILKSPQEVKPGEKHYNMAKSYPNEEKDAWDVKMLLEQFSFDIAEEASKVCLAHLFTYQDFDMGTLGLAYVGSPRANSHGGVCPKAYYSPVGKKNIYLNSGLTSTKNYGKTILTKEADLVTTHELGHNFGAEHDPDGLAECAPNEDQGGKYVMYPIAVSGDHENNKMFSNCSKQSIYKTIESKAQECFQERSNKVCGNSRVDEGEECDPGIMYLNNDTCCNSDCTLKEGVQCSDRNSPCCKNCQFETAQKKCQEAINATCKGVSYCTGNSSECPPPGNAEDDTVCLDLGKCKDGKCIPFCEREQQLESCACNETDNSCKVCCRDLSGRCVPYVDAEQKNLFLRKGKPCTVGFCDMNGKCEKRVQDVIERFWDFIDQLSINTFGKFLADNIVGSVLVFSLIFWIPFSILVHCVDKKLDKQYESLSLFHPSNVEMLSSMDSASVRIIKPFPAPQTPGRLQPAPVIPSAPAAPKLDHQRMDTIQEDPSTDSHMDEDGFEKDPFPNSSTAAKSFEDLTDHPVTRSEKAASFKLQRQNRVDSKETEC
T2 sequence (P78536 other isoform, or with tags, fused parts or gaps limits assumed): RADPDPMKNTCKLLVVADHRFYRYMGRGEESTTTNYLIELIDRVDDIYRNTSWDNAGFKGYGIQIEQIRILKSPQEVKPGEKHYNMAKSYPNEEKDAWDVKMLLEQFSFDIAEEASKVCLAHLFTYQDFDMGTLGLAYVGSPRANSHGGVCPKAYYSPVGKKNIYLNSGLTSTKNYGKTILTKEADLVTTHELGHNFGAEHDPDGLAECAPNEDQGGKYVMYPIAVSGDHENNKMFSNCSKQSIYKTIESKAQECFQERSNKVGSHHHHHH
T1 sequence (P78536 215-651): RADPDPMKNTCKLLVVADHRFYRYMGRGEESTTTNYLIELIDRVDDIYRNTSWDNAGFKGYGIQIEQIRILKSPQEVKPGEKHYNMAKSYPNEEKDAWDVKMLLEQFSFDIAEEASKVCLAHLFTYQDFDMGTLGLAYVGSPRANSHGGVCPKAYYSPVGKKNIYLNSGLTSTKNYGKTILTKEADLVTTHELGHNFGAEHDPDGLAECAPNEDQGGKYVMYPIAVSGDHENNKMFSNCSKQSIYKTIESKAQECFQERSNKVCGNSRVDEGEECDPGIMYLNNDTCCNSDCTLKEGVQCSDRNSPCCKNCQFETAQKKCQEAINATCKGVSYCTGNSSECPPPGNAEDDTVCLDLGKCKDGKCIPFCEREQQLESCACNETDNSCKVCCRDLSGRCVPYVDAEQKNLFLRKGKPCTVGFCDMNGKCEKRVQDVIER
Chain of recombinant human TACE catalytic domain (Arg215-Val477-GlySer-His6) (human) (P78536 other isoform, or with tags, fused parts or gaps limits assumed): as the sequence (P78536 other isoform, or with tags, fused parts or gaps limits assumed) above
Chain of recombinant human TACE ectodomain (Arg215-Arg651) (human) (P78536 215-651): as the sequence (P78536 215-651) above

B1: D1(A12) scFv (scFv, part only; not given: linker and tags, not shown: small tags and cut ends)
scFv, part: EVQLVESGGGLVRPGGSLRLSCAASGFTFSSYAMSWVRQAPGKGLEWVSAISGSGGSTYYADSVKGRFTISRDNTKNSLYLQMTSLRADDTAFYYCVKDFGPGYGTGWFDYWGPGTLVTVSASDIQMTQSPSSLSASVGDRVTITCRASQSISSYLNWYQQKPGKAPKLLIHDASSLQSGVPSRFSGSGSGTDFTLTISSLQPEDFATYYCQQSFSIPLTFGGGTKMDIKR
Turning to B1, the IC50, solution-phase QF-peptide assay (wild-type scFv) in [1] is 0.89 nM; in assay [2], 2.3 nM.

B2: D1(A12) FAb (Fab, V domains shown)
VH: EVQLVESGGGLVRPGGSLRLSCAASGFTFSSYAMSWVRQAPGKGLEWVSAISGSGGSTYYADSVKGRFTISRDNTKNSLYLQMTSLRADDTAFYYCVKDFGPGYGTGWFDYWGPGTLVTVSA
VL: DIQMTQSPSSLSASVGDRVTITCRASQSISSYLNWYQQKPGKAPKLLIHDASSLQSGVPSRFSGSGSGTDFTLTISSLQPEDFATYYCQQSFSIPLTFGGGTKMDIKR
notes: Expressed in E. coli periplasm, purified on Protein G; also called monovalent D1(A12) human FAb
As to B2, the “IC50, cleavage of GST-TNF-α (SDS-PAGE densitometry)” value in assay [3] stood at 73.9 nM; in assay [4] it was 125 nM. In addition, in [3], the “ΔIC50 = IC50 Ecto:N-TIMP-3 / IC50 Ecto:D1(A12), QF-peptide assay” value was found to be 5.75 fold. In assay [4], the “ΔIC50 = IC50 Cat:N-TIMP-3 / IC50 Cat:D1(A12), QF-peptide assay” value was found to be 1.35 fold. Further, the koff in assay [5] turned out to be 0.00024 s⁻¹; in [6] it was 0.00058 s⁻¹. Also, the results for the kon in [5] and in assay [6] were 530000 M⁻¹ s⁻¹ and 110000 M⁻¹ s⁻¹, respectively. Moreover, in assay [7], the “Delta (IC50 ectodomain against IC50 catalytic domain)” value is 0.8 fold. The “IC50 (nM), QF-peptide assay” value in [7] was determined as 0.45 nM; in assay [8] it was 0.54 nM. In assay [9], the “IC50 (read off the curve)” value is around 10 nM. Also, the “ΔKD (KD Cat/KD Ecto)” value in assay [10] is 11.3 fold. The Kd came to 0.461 nM in [11] and 5.21 nM in [12]. Further, the results for the EC50 in assay [13] and in assay [14] were 0.92 nM and 11.1 nM, respectively. Also, the “ΔEC50 (EC50 Cat/EC50 Ecto)” value in [15] was determined as 12.1 fold.

B3: D1(A12) human IgG1 (antibody, V domains shown)
VH: B2 VH
VL: B2 VL
On to B3, for which, in [16], the “Delta (IC50 N-TIMP-3 against IC50 D1(A12) IgG1), Amphiregulin, PC3” value amounted to 5.7 fold; the “Delta (IC50 N-TIMP-3 against IC50 D1(A12) IgG1), HB-EGF-AP, HeLa” value was determined as 6 fold; the “Delta (IC50 N-TIMP-3 against IC50 D1(A12) IgG1), TGF-α, IGROV-1” value was 4.7 fold; the “Delta (IC50 N-TIMP-3 against IC50 D1(A12) IgG1), TNF-α, TOV21G” value came out at 4.3 fold. In assay [16], the “Delta (IC50 N-TIMP-3 against IC50 D1(A12) IgG1), TNFR1a, IGROV-1” value turned out to be 4.7 fold; the “Delta, mean value of the five cell shedding assays” value was found to be 5.1 fold; the “IC50 (nM), PMA-stimulated shedding of Amphiregulin from PC3 cells” value amounted to 9.3 nM; the “IC50 (nM), PMA-stimulated shedding of HB-EGF-AP from HeLa cells” value turned out to be 7.9 nM. In addition, in [16], the “IC50 (nM), PMA-stimulated shedding of TGF-α from IGROV-1 cells” value came to 9.4 nM; the “IC50 (nM), PMA-stimulated shedding of TNF-α from TOV21G cells” value came out at 11.2 nM; the “IC50 (nM), mean value of the five cell shedding assays” value came to 9.6 nM; the “IC50 (nM), shedding of TNFR1a from IGROV-1 cells” value was 10.4 nM.

B4: N-TIMP-3 (other, UniProt P35625 24-144, looked up)
chain: CTCSPSHPQDAFCNSDIVIRAKVVGKKLVKEGPFGTLVYTIKQMKMYRGFTKMPHVQYIHTEASESLCGLKLEVNKYQYLLTGRVYDGKMYTGLCNFVERWDQLTLSQRKGLNYRYHLGCN
notes: domain: N-terminal fragment; also called amino-terminal domain of TIMP-3
Regarding B4, the “IC50, quenched-fluorescent (QF) peptide cleavage assay” value in assay [3] came to 3.2 nM. In assay [17], the off-rate constant (koff) came out at 2.1e-05 s⁻¹ and the association rate constant (kon) turned out to be 100000 M⁻¹ s⁻¹. Further, in assay [7], the “Delta (IC50 ectodomain against IC50 catalytic domain)” value amounted to 5.2 fold and the “IC50 (nM), QF-peptide assay” value was 3.1 nM. Besides, in assay [16], the “IC50 (nM), PMA-stimulated shedding of Amphiregulin from PC3 cells” value came to 53.3 nM; the “IC50 (nM), PMA-stimulated shedding of HB-EGF-AP from HeLa cells” value is 47.3 nM; the “IC50 (nM), PMA-stimulated shedding of TGF-α from IGROV-1 cells” value was determined as 44.5 nM; the “IC50 (nM), PMA-stimulated shedding of TNF-α from TOV21G cells” value came to 48.5 nM. Also, in assay [16], the “IC50 (nM), mean value of the five cell shedding assays” value turned out to be 48.6 nM and the “IC50 (nM), shedding of TNFR1a from IGROV-1 cells” value came to 49.5 nM. The “IC50 (nM), QF-peptide assay” value in assay [8] stood at 0.6 nM. Further, the “ΔKD (KD Cat/KD Ecto)” value in [10] is 0.03 fold. Besides, the “IC50 (read off the curve)” value in assay [18] is around 20 nM. For the same molecule, the dissociation constant Kd in [19] is 7.22 nM. Also, the Kd in assay [20] was found to be 0.211 nM. Moreover, in assay [21], the koff was 5.2e-05 s⁻¹ and the association rate constant (kon) amounted to 7200 M⁻¹ s⁻¹.

The values above are taken from patent US20140050738A1 (CANCER RESEARCH TECHNOLOGY, published 2014).
